Measured values taken from patent publication US20260242735A1 (UNIVERSIT T BASEL, published 2026).

How the values were obtained:
Test in all cases: alanine scan, flow cytometry, HEK293-T;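 also: antibody binding to each alanine-substituted CD33 mutant expressed transiently in HEK293-T, read as fluorescence minus background, mean of duplicates, relative to wild-type CD33 set as 100%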
human CD33 A289S = human CD33 A289S (human, UniProt P20138 18-364)
human CD33 T303A = human CD33 T303A (human, UniProt P20138 18-364)
human CD33 G247A = human CD33 G247A (human, UniProt P20138 18-364)
human CD33 G263A = human CD33 G263A (human, UniProt P20138 18-364)
human CD33 K313A = human CD33 K313A (human, UniProt P20138 18-364)
human CD33 A293S = human CD33 A293S (human, UniProt P20138 18-364)
human CD33 T302A = human CD33 T302A (human, UniProt P20138 18-364)
human CD33 T299A = human CD33 T299A (human, UniProt P20138 18-364)
human CD33 I278A = human CD33 I278A (human, UniProt P20138 18-364)
human CD33 H285A = human CD33 H285A (human, UniProt P20138 18-364)
human CD33 K283A = human CD33 K283A (human, UniProt P20138 18-364)
human CD33 T292A = human CD33 T292A (human, UniProt P20138 18-364)
human CD33 Q311A = human CD33 Q311A (human, UniProt P20138 18-364)
human CD33 G260A = human CD33 G260A (human, UniProt P20138 18-364)
human CD33 A272S = human CD33 A272S (human, UniProt P20138 18-364)
human CD33 V294A = human CD33 V294A (human, UniProt P20138 18-364)
human CD33 L275A = human CD33 L275A (human, UniProt P20138 18-364)
human CD33 H300A = human CD33 H300A (human, UniProt P20138 18-364)
Chain of human CD33 H300A (P20138 18-364 H300A limits assumed): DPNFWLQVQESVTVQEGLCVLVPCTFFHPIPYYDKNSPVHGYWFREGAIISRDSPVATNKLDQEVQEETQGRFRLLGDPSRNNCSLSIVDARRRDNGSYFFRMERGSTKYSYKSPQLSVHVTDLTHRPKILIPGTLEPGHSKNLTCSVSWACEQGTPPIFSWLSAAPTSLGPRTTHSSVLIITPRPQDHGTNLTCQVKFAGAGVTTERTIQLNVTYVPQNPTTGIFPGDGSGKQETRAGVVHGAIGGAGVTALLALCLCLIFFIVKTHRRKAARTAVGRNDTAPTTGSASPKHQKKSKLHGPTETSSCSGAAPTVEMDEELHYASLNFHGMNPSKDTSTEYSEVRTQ

Chain of human CD33 Q311A (P20138 18-364 Q311A limits assumed): as the sequence (P20138 18-364 H300A limits assumed) above, with A283H, Q294A counted along it
Chain of human CD33 T302A (P20138 18-364 T302A limits assumed): as the sequence (P20138 18-364 H300A limits assumed) above, with A283H, T285A counted along it
Chain of human CD33 L275A (P20138 18-364 L275A limits assumed): as the sequence (P20138 18-364 H300A limits assumed) above, with L258A, A283H counted along it
Chain of human CD33 G247A (P20138 18-364 G247A limits assumed): as the sequence (P20138 18-364 H300A limits assumed) above, with G230A, A283H counted along it
Chain of human CD33 T292A (P20138 18-364 T292A limits assumed): as the sequence (P20138 18-364 H300A limits assumed) above, with T275A, A283H counted along it
Chain of human CD33 T299A (P20138 18-364 T299A limits assumed): as the sequence (P20138 18-364 H300A limits assumed) above, with T282A, A283H counted along it
Chain of human CD33 A272S (P20138 18-364 A272S limits assumed): as the sequence (P20138 18-364 H300A limits assumed) above, with A255S, A283H counted along it
Chain of human CD33 A289S (P20138 18-364 A289S limits assumed): as the sequence (P20138 18-364 H300A limits assumed) above, with A272S, A283H counted along it
Chain of human CD33 I278A (P20138 18-364 I278A limits assumed): as the sequence (P20138 18-364 H300A limits assumed) above, with I261A, A283H counted along it
Chain of human CD33 G260A (P20138 18-364 G260A limits assumed): as the sequence (P20138 18-364 H300A limits assumed) above, with G243A, A283H counted along it
Chain of human CD33 H285A (P20138 18-364 H285A limits assumed): as the sequence (P20138 18-364 H300A limits assumed) above, with H268A, A283H counted along it
Chain of human CD33 T303A (P20138 18-364 T303A limits assumed): as the sequence (P20138 18-364 H300A limits assumed) above, with A283H, T286A counted along it
Chain of human CD33 K313A (P20138 18-364 K313A limits assumed): as the sequence (P20138 18-364 H300A limits assumed) above, with A283H, K296A counted along it
Chain of human CD33 V294A (P20138 18-364 V294A limits assumed): as the sequence (P20138 18-364 H300A limits assumed) above, with V277A, A283H counted along it
Chain of human CD33 K283A (P20138 18-364 K283A limits assumed): as the sequence (P20138 18-364 H300A limits assumed) above, with K266A, A283H counted along it
Chain of human CD33 G263A (P20138 18-364 G263A limits assumed): as the sequence (P20138 18-364 H300A limits assumed) above, with G246A, A283H counted along it
Chain of human CD33 A293S (P20138 18-364 A293S limits assumed): as the sequence (P20138 18-364 H300A limits assumed) above, with A276S, A283H counted along it

Row | Binder | Mean % WT Binding (human CD33 A289S) [% WT binding] | Mean % WT Binding (human CD33 T303A) [% WT binding] | Mean % WT Binding (human CD33 G247A) [% WT binding] | Mean % WT Binding (human CD33 G263A) [% WT binding] | Mean % WT Binding (human CD33 K313A) [% WT binding] | Mean % WT Binding (human CD33 A293S) [% WT binding] | Mean % WT Binding (human CD33 T302A) [% WT binding] | Mean % WT Binding (human CD33 T299A) [% WT binding] | Mean % WT Binding (human CD33 I278A) [% WT binding] | Mean % WT Binding (human CD33 H285A) [% WT binding] | Mean % WT Binding (human CD33 K283A) [% WT binding] | Mean % WT Binding (human CD33 T292A) [% WT binding] | Mean % WT Binding (human CD33 Q311A) [% WT binding] | Mean % WT Binding (human CD33 G260A) [% WT binding] | Mean % WT Binding (human CD33 A272S) [% WT binding] | Mean % WT Binding (human CD33 V294A) [% WT binding] | Mean % WT Binding (human CD33 L275A) [% WT binding] | Mean % WT Binding (human CD33 H300A) [% WT binding]
1 | Refmab #3 (antibody, V domains shown, The alanine scan used IgG or Fab) VH: QVQLVQSGAEVKKPGSSVKVSCKASGYTFTDYNMHWVRQAPGQGLEWIGYIYPYNGGTGYNQKFKSKATITADESTNTAYMELSSLRSEDTAVYYCARGRPAMDYWGQGTLVTVSS VL: DIQMTQSPSSLSASVGDRVTITCRASESVDNYGISFMNWFQQKPGKAPKLLIYAASNQGSGVPSRFSGSGSGTDFTLTISSLQPDDFATYYCQQSKEVPWTFGQGTKVEIK | 82.8 | 72.7 | 106 | 116 | 137 | 72.9 | 101 | 85.6 | 100 | 94.3 | 90.9 | 99.6 | 124 | 140 | 105 | 95.8 | 123 | 68.3
2 | Refmab #4 (antibody, V domains shown, The alanine scan used IgG or Fab) VH: QVQLVQSGAEVKKPGESVKVSCKASGYTFTNYGMNWVKQAPGQGLEWMGWINTYTGEPTYADKFQGRVTMTTDTSTSTAYMEIRNLGGDDTAVYYCARWSWSDGYYVYFDYWGQGTSVTVSS VL: DIVMTQSPDSLTVSLGERTTINCKSSQSVLDSSTNKNSLAWYQQKPGQPPKLLLSWASTRESGIPDRFSGSGSGTDFTLTIDSPQPEDSATYYCQQSAHFPITFGQGTRLEIK | 95 | 81.2 | 113 | 99.9 | 87.7 | 106 | 98.2 | 92.9 | 116 | 95.2 | 84 | 100 | 102 | 106 | 107 | 97.8 | 99.3 | 95.2
